Entries after “also recorded” stand apart in the source; their conditions may differ.
Key:
[1] = system: e13.5 CD1 mouse epithelial lung buds; test: EdU incorporation quantified by flow cytometry in cultured mouse lung buds; format: cell-based; settings: 50-100 ng/mL FGF7 versus 1-10 ng/mL, one week culture, 1 hour EdU pulse
Method: Epithelial lung buds were dissected from e13.5 CD1 mice and plated in a matrigel droplet as described above. 3-4 individual buds from one mouse were placed in each droplet and were pooled to serve as a single biological replicate. Three droplets (corresponding to 3 independent biological samples) were assigned to each experimental group, receiving either 1, 10, 50 or 100 ng/mL of FGF7 for 7 days. Media was changed every 2-3 days. Cells were incubated with EdU for 1 hour and stained with the Click-It EdU Alexa Fluor 488 system (ThermoFisher Cat# C10337) according to the manufacturer's instructions. As a control, wells that received 10 ng/mL of FGF7 for 7 days were taken through the EdU steps but were not stained were used to set the gates. For analysis, lung buds were broken into a single cell suspension. 1 mL of accutase (Sigma Cat# A6964) was added to a 15 mL conical tube containing pooled epithelial buds and cells were incubated at 37 degrees Celsius with frequent visual inspection until clumps of cells were no longer visible. 3 mL of basal media (see below) was added to each tube, and cells were centrifuged at 300 g for 5 minutes at 4 degrees Celsius. The supernatant was then withdrawn, and cells were resuspended with 1 mL sterile PBS, filtered through a 70 uM strainer to remove any cell clumps and transferred to a cell sorting tube. […]

E13.5 mouse lung buds = test: Marker expression (QRT-PCR, immunostaining) in cultured mouse lung buds; format: cell-based
Method: RNA was extracted using the MagMAX-96 Total RNA Isolation System (Life Technologies). RNA quality and concentration was determined on a Nanodrop 2000 spectrophotometer (Thermo Scientific). 100 ng of RNA was used to generate a cDNA library using the SuperScript VILO cDNA master mix kit (Invitrogen) according to manufacturer's instructions. qRT-PCR analysis was conducted using Quantitect SYBR Green Master Mix (Qiagen) on a Step One Plus Real-Time PCR system (Life Technologies). Expression was calculated as a change relative to GAPDH expression using arbitrary units, which were calculated by the following equation: [2^(GAPDH Ct−Gene Ct)]×10,000. A Ct value of 40 or greater was considered not detectable. A list of primer sequences used can be found in Table 1.
Mouse bud, human bud, and HLO tissue was fixed in 4% Paraformaldehyde (Sigma) for 2 hours and rinsed in PBS overnight. Tissue was dehydrated in an alcohol series, with 30 minutes each in 25%, 50%, 75% Methanol:PBS/0.05% Tween-20, followed by 100% Methanol, and then 100% Ethanol. Tissue was processed into paraffin using an automated tissue processor (Leica ASP300). Paraffin blocks were sectioned 5-7 uM thick, and immunohistochemical staining was performed as previously described (Spence et al., 2009). A list of antibodies, antibody information and concentrations used can be found in Table 2. PAS Alcian blue staining was performed using the Newcomer supply Alcian Blue/PAS Stain kit (Newcomer Supply, Inc.) according to manufacturer's instructions.
For whole mount staining tissue was placed in a 1.5 mL eppendorf tube and fixed in 4% paraformaldehyde (Sigma) for 30 minutes. Tissue was then washed with PBS/0.05% Tween-20 (Sigma) for 5 hours, followed by a 2.5-hour incubation with blocking serum (PBS-Tween-20 plus 5% normal donkey serum). Primary antibodies were added to blocking serum and tissue was incubated for at least 24 hours at 4 degrees Celsius. Tissue was then washed for 5 hours with several changes of fresh PBS-Tween-20. Secondary antibodies were added to fresh blocking solution and tissue was incubated for 12-24 hours, followed by 5 hours of PBS-Tween-20 washes. Tissue was then dehydrated to 100% methanol and carefully moved to the center of a single-well EISCO concave microscope slide (ThermoFisher Cat#S99368) using a glass transfer pipette. 5-7 drops of Murray's clear ([…] [Sigma]) were added to the center of the slide, and slides were coverslipped and sealed with clear nail polish.

B1: Recombinant Human Fibroblast Growth Factor 7 (protein, UniProt P21781 32-194, looked up)
Fibroblast growth factor 7: CNDMTPEQMATNVNCSSPERHTRSYDYMEGGDIRVRRLFCRTQWYLRIDKRGKVKGTQEMKNNYNIMEIRTVAVGIVAIKGVESEFYLAMNKEGKLYAKKECNEDCNFKELILENHYNTYASAKWTHNGGEMFVALNQKGIPVRGKKTKKEQKTAHFLPMAIT
notes: Recombinant human growth factor from R&D systems, used at 10 ng/mL unless otherwise noted
- Proliferation (EdU labeled cells) [1]: increased proliferation significantly; also recorded: significant increase in labeled cells
- Scgb1a1 expression after switch to FGF7 only (QRT-PCR) (E13.5 mouse lung buds; 5 days 4F media then 4 days FGF7 only, versus 4F): increased
- SOX9 protein and mRNA expression after switch to FGF7 only (E13.5 mouse lung buds; 5 days 4F media then 4 days FGF7 only, versus 4F throughout): reduction of SOX9 protein and mRNA expression
- Sox9 expression over time in culture (QRT-PCR) (E13.5 mouse lung buds; FGF7 culture, compared to day 0): significantly reduced after 3 days in culture
- Expression of mature alveolar markers Aqp5 and Sftpb over time (QRT-PCR) (E13.5 mouse lung buds; FGF7 culture, length of time in culture): significant increases

— patent US11857697B2, “Compositions and methods for obtaining 3-dimensional lung-like epithelium and related uses thereof” (THE REGENTS OF THE UNIVERSITY OF MICHIGAN, priority 2017, dated 2024)
